Data: PMC11883000, “Structure-function relationship of ASH1L and histone H3K36 and H3K4 methylation” (Nature Communications, 2025)
Positions count from the first letter of the chain named. Names may count otherwise. “Also recorded” adds a separate entry of the source.

B1: ASH1LBD-PHD: Human ASH1L construct (aa 2430-2629) (protein)
chain: NIEVARAARLAQIFKEICDGIISYKDSSRQALAAPLLNLPPKKKNADYYEKISDPLDLITIEKQILTGYYKTVEAFDADMLKVFRNAEKYYGRKSPVGRDVCRLRKAYYNARHEASAQIDEIVGETASEADSSETSVSEKENGHEKDDDVIRCICGLYKDEGLMIQCDKCMVWQHCDCMGVNSDVEHYLCEQCDPRPVDREVP
B2: ASH1LPHD-BAH: Human ASH1L construct (aa 2579-2794 and 2579-2834) (protein, UniProt Q9NR48 2579-2834, looked up, fragment)
chain: HEKDDDVIRCICGLYKDEGLMIQCDKCMVWQHCDCMGVNSDVEHYLCEQCDPRPVDREVPMIPRPHYAQPGCVYFICLLRDDLLLRQGDCVYLMRDSRRTPDGHPVRQSYRLLSHINRDKLDIFRIEKLWKNEKEERFAFGHHYFRPHETHHSPSRRFYHNELFRVPLYEIIPLEAVVGTCCVLDLYTYCKGRPKGVKEQDVYICDYRLDKSAHLFYKIHRNRYPVCTKPYAFDHFPKKLTPKKDFSPHYVPDNYK
modifications: also 2579-2794 construct
B3: ASH1LBD-PHD-BAH: Human ASH1L construct (aa 2436-2833) (protein, UniProt Q9NR48 2436-2833, looked up, fragment)
chain: NIEVARAARLAQIFKEICDGIISYKDSSRQALAAPLLNLPPKKKNADYYEKISDPLDLITIEKQILTGYYKTVEAFDADMLKVFRNAEKYYGRKSPVGRDVCRLRKAYYNARHEASAQIDEIVGETASEADSSETSVSEKENGHEKDDDVIRCICGLYKDEGLMIQCDKCMVWQHCDCMGVNSDVEHYLCEQCDPRPVDREVPMIPRPHYAQPGCVYFICLLRDDLLLRQGDCVYLMRDSRRTPDGHPVRQSYRLLSHINRDKLDIFRIEKLWKNEKEERFAFGHHYFRPHETHHSPSRRFYHNELFRVPLYEIIPLEAVVGTCCVLDLYTYCKGRPKGVKEQDVYICDYRLDKSAHLFYKIHRNRYPVCTKPYAFDHFPKKLTPKKDFSPHYVPDNY
B4: ASH1LBD: Human ASH1L bromodomain (aa 2430-2564) (protein)
chain: LAAAEENIEVARAARLAQIFKEICDGIISYKDSSRQALAAPLLNLPPKKKNADYYEKISDPLDLITIEKQILTGYYKTVEAFDADMLKVFRNAEKYYGRKSPVGRDVCRLRKAYYNARHEASAQIDEIVGETASE
modifications: left off: GST, end not stated, cleaved
B5: K2524Q/R2528Q/K2529Q mutant: K2524Q/R2528Q/K2529Q mutant of ASH1LBD (protein, UniProt Q9NR48 2430-2564, looked up, variant K2524Q R2528Q K2529Q)
chain: B4 chain with K95Q, R99Q, K100Q
modifications: bromodomain
notes: K2524Q/R2528Q/K2529Q mutant of ASH1LBD
B6: K2477Q/K2478Q/K2479Q mutant: K2477Q/K2478Q/K2479Q mutant of ASH1LBD (protein, UniProt Q9NR48 2430-2564, looked up, variant K2477Q K2478Q K2479Q)
chain: B4 chain with K48Q, K49Q, K50Q
modifications: bromodomain
notes: K2477Q/K2478Q/K2479Q mutant of ASH1LBD

Columns and labels:
Format in all cases: binding
147 bp 601 DNA = assay: EMSA with 147 bp 601 DNA; details: 0.05 µM 147 bp 601 DNA, increasing protein, 25 mM Tris pH 7.5, 20 mM NaCl, 20% glycerol, on ice 5 min, at least in duplicate
H3K4me3-NCP = details: EMSA
unmodified 187 bp NCP = assay: EMSA with unmodified 187 bp NCP
unmodified 147 bp NCP = assay: EMSA with unmodified 147 bp NCP; details: 0.025 µM nucleosome, pH 7.5, compared to H3K4me3-NCP

Molecule | DNA binding (147 bp 601 DNA) | further results
B1 | decreased | 
B2 | forms a tight complex with 601 DNA | binding to H3K4me3-NCP (H3K4me3-NCP; 0.025 µM nucleosome, increasing protein, pH 7.5, on ice 5 min): formed a tight complex; binding to unmodified 187 bp NCP (unmodified 187 bp NCP; 0.025 µM nucleosome, pH 7.5, compared to unmodified 147 bp NCP): increased; binding to unmodified 147 bp NCP (unmodified 147 bp NCP): decreased
B3 | restored; also recorded: further increased | preference over 147bp-NCP (H3K4me3-NCP; H3K4me3-NCP over 147bp-NCP): maintained; preference over 147bp-NCP (unmodified 187 bp NCP; 187bp-NCP over 147bp-NCP): maintained; also recorded: this preference was retained
B4 | forms a complex with DNA | 
B5 | lost its ability to bind DNA | 
B6 | diminished | 
